# Laboratory results published in the RNAGym collection of RNA variant scans (doi:10.7554/elife.80360).
# B1: CPEB3 Ribozyme (parent)
# chain: GGGGGCCACAGCAGAAGCGUUCACGUCGCGGCCCCUGUCAGAUUCUGGUGAAUCUGCGAAUUCUGCUGU
# Variants of: B1
# Experiment: self-cleavage, relative activity (ratio to wild type); higher = more cleavage; co-transcriptional
row,Variant,self-cleavage
1,C45U G56A,0.943
2,C45U G58A,0.972
3,C45U G58C,1.01
4,C45U G58U,1.01
5,C45U G65A,0.929
6,C45U G68A,1.02
7,C45U U46A,0.999
8,C45U U46C,0.975
9,C45U U46G,0.952
10,C45U U49C,0.986
11,C45U U49G,1.01
12,C45U U53A,0.936
13,C45U U53G,0.9
14,C45U U61G,0.897
15,C45U U62C,0.895
16,C45U U62G,0.847
17,C45U U64A,0.88
18,C45U U64C,0.905
19,C45U U67A,1.01
20,C45U U67G,1.02
21,C45U U69G,1.05
22,U46A,1
23,U46A A51G,0.946
24,U46A A52G,1.03

row,Variant,self-cleavage
1,U46A A52U,0.981
2,U46A A59U,0.842
3,U46A A60U,0.556
4,U46A C54U,0.973
5,U46A C57A,0.434
6,U46A C63A,0.908
7,U46A C63G,0.838
8,U46A G47C,1.04
9,U46A G50U,0.977
10,U46A G56C,0.858
11,U46A G56U,0.941
12,U46A G65A,0.954
13,U46A G65C,0.601
14,U46A G68U,0.988
15,U46A U49C,0.666
16,U46A U49G,0.922
17,U46A U53A,0.989
18,U46A U53C,0.971
19,U46A U53G,0.931
20,U46A U55G,0.916
21,U46A U61A,0.982
22,U46A U62A,0.937
23,U46A U64C,0.98
24,U46A U67A,0.972

row,Variant,self-cleavage
1,U46A U69G,1.03
2,U46C,0.986
3,U46C A51C,0.99
4,U46C A52U,0.974
5,U46C A59C,0.744
6,U46C A60G,0.88
7,U46C C54U,0.975
8,U46C C57G,0.361
9,U46C C57U,0.279
10,U46C C66U,0.959
11,U46C G47U,1.02
12,U46C G50U,0.984
13,U46C G56A,0.933
14,U46C G56C,0.785
15,U46C G58C,0.976
16,U46C G58U,0.933
17,U46C G65U,0.629
18,U46C G68U,1.02
19,U46C U49G,1.01
20,U46C U53A,0.933
21,U46C U53C,0.878
22,U46C U61C,0.788
23,U46C U61G,0.856
24,U46G,0.994

row,Variant,self-cleavage
1,U46G A52C,0.942
2,U46G A52G,0.992
3,U46G A59C,0.828
4,U46G C54A,0.845
5,U46G C54U,0.992
6,U46G C63G,0.825
7,U46G G48A,1.01
8,U46G G48C,0.994
9,U46G G48U,1.01
10,U46G G50C,0.941
11,U46G G56A,0.941
12,U46G G58A,0.957
13,U46G G58C,0.936
14,U46G G65A,0.928
15,U46G G65U,0.913
16,U46G G68A,1.01
17,U46G U49G,0.972
18,U46G U67C,0.979
19,U46G U69A,1.01
20,U46G U69G,1.04
21,G47A A51C,0.983
22,G47A A52C,0.993
23,G47A A52U,1.01
24,G47A A59C,0.769

row,Variant,self-cleavage
1,G47A A59G,0.988
2,G47A A60C,0.397
3,G47A A60G,0.944
4,G47A C54U,0.972
5,G47A C57G,0.303
6,G47A C63G,0.922
7,G47A C63U,1.02
8,G47A C66A,0.916
9,G47A G48U,1.03
10,G47A G50A,0.959
11,G47A G50C,1
12,G47A G56C,0.918
13,G47A G58U,0.995
14,G47A G65A,0.936
15,G47A G68C,1
16,G47A U49A,1.01
17,G47A U49C,0.975
18,G47A U55A,1
19,G47A U61A,0.941
20,G47A U62G,0.959
21,G47A U64G,0.959
22,G47A U67A,0.969
23,G47A U69C,1.06
24,G47C A51G,1

row,Variant,self-cleavage
1,G47C A51U,1.02
2,G47C A60C,0.366
3,G47C A60G,1.01
4,G47C C54A,0.949
5,G47C C57G,0.299
6,G47C C63A,0.944
7,G47C C63G,0.891
8,G47C C66U,1
9,G47C G48C,1.05
10,G47C G48U,0.995
11,G47C G50A,0.965
12,G47C G56A,1
13,G47C U49A,1
14,G47C U55A,1.03
15,G47C U55G,0.931
16,G47C U61C,0.87
17,G47C U62C,0.91
18,G47C U64C,0.956
19,G47C U67A,1.04
20,G47C U69A,0.99
21,G47C U69G,1.06
22,G47U A51G,0.998
23,G47U A52C,1.02
24,G47U A52G,0.987

row,Variant,self-cleavage
1,G47U A59U,0.833
2,G47U C54G,0.975
3,G47U C63A,0.944
4,G47U C63G,0.905
5,G47U C63U,1.01
6,G47U G48A,1.03
7,G47U G48U,1.01
8,G47U G50U,1.04
9,G47U G56U,0.983
10,G47U G65A,0.953
11,G47U G65U,0.946
12,G47U G68A,0.991
13,G47U G68C,1.01
14,G47U G68U,1.01
15,G47U U49A,1.01
16,G47U U49C,0.991
17,G47U U53A,1.01
18,G47U U55C,0.979
19,G47U U61C,0.937
20,G47U U62A,0.983
21,G47U U64A,0.904
22,G47U U64C,0.943
23,G47U U67A,0.99
24,G47U U67G,1.01

row,Variant,self-cleavage
1,G48A A51G,1.03
2,G48A A60G,0.916
3,G48A C57A,0.329
4,G48A G56U,0.972
5,G48A G58C,0.98
6,G48A G58U,0.987
7,G48A G68A,1.01
8,G48A G68U,1.01
9,G48A U49A,0.984
10,G48A U53A,1.03
11,G48A U53C,0.958
12,G48A U53G,0.987
13,G48A U55A,0.99
14,G48A U62A,0.973
15,G48A U69G,1.07
16,G48C A51C,1.02
17,G48C A51U,0.976
18,G48C A59U,0.861
19,G48C A60G,0.948
20,G48C C54A,0.921
21,G48C C54G,0.919
22,G48C C57U,0.32
23,G48C C63G,0.829
24,G48C C66U,0.998

row,Variant,self-cleavage
1,G48C G56U,0.962
2,G48C G58U,0.969
3,G48C G68C,0.992
4,G48C G68U,0.985
5,G48C U53A,0.968
6,G48C U55C,0.963
7,G48C U55G,0.864
8,G48C U61A,0.962
9,G48C U62A,0.994
10,G48C U62C,0.946
11,G48C U64A,0.864
12,G48C U64G,0.974
13,G48C U69A,1.01
14,G48C U69G,1.05
15,G48U A59G,0.993
16,G48U A60U,0.561
17,G48U C54A,0.994
18,G48U C54U,1.02
19,G48U C57G,0.398
20,G48U C57U,0.388
21,G48U C66G,0.937
22,G48U G58C,0.999
23,G48U G65A,0.961
24,G48U U53A,1

row,Variant,self-cleavage
1,G48U U55A,1
2,G48U U61G,0.958
3,G48U U62A,0.922
4,G48U U62G,0.927
5,U49A,1
6,U49A A51C,0.633
7,U49A A51G,1.05
8,U49A A52C,1
9,U49A A52U,1.02
10,U49A C57U,0.379
11,U49A C63U,0.94
12,U49A C66U,0.998
13,U49A G50U,0.986
14,U49A G56C,0.765
15,U49A G58A,1.01
16,U49A G65U,0.821
17,U49A G68U,0.982
18,U49A U53C,0.991
19,U49A U55C,0.895
20,U49A U55G,0.907
21,U49A U61C,0.91
22,U49A U62G,0.919
23,U49A U64A,0.942
24,U49A U67C,0.99

row,Variant,self-cleavage
1,U49A U67G,1.03
2,U49A U69A,0.976
3,U49A U69C,1.06
4,U49C,0.988
5,U49C A51G,1.03
6,U49C A60G,0.955
7,U49C C54A,0.782
8,U49C C63U,0.993
9,U49C C66A,0.77
10,U49C G50A,0.981
11,U49C G56A,0.935
12,U49C G56U,0.948
13,U49C G58C,0.993
14,U49C U55G,0.816
15,U49C U61A,0.911
16,U49C U61C,0.816
17,U49C U62A,0.98
18,U49C U64A,0.89
19,U49C U64G,0.909
20,U49G,0.996
21,U49G A51G,0.981
22,U49G A51U,0.95
23,U49G A52G,0.94
24,U49G A59G,0.96

row,Variant,self-cleavage
1,U49G A59U,0.835
2,U49G A60C,0.338
3,U49G C54A,0.907
4,U49G C54G,0.925
5,U49G C66A,0.891
6,U49G G50C,0.975
7,U49G G50U,0.993
8,U49G G58C,1
9,U49G G58U,0.957
10,U49G G65A,0.97
11,U49G G68A,1
12,U49G G68C,0.958
13,U49G U53A,0.918
14,U49G U53C,0.98
15,U49G U53G,0.585
16,U49G U55A,0.968
17,U49G U61G,0.991
18,U49G U64C,0.932
19,U49G U64G,0.926
20,U49G U67C,0.964
21,U49G U69A,1.01
22,U49G U69C,1.06
23,G50A,0.999
24,G50A A51C,1.02

row,Variant,self-cleavage
1,G50A A52G,1
2,G50A A59C,0.806
3,G50A C54G,0.848
4,G50A C54U,0.992
5,G50A C57A,0.448
6,G50A C57U,0.356
7,G50A C63U,0.986
8,G50A C66A,0.848
9,G50A C66G,0.902
10,G50A G56C,0.675
11,G50A G56U,0.905
12,G50A G58C,1
13,G50A G65C,0.683
14,G50A G68A,1.03
15,G50A U53A,0.903
16,G50A U55C,0.79
17,G50A U55G,0.858
18,G50A U61G,0.876
19,G50A U64C,0.874
20,G50A U64G,0.892
21,G50A U67C,1.01
22,G50A U67G,1.02
23,G50A U69A,0.982
24,G50C,0.996

row,Variant,self-cleavage
1,G50C A51C,0.876
2,G50C A51G,0.982
3,G50C A52U,0.884
4,G50C A60G,0.959
5,G50C C54A,0.53
6,G50C C57G,0.314
7,G50C G56C,0.456
8,G50C G58A,0.935
9,G50C G65U,0.774
10,G50C G68A,0.992
11,G50C U53A,0.899
12,G50C U64A,0.792
13,G50C U67A,0.955
14,G50C U69C,1.07
15,G50U,0.997
16,G50U A51C,0.938
17,G50U A52G,0.976
18,G50U A59C,0.682
19,G50U A60C,0.382
20,G50U A60G,0.973
21,G50U C54G,0.781
22,G50U C63G,0.844
